The record followed here is publication PMC314469, “Protein Interaction Networks by Proteome Peptide Scanning” (PLoS Biology, 2004).

B1: YIL067C 85-98 (peptide)
chain: DEPPSFPKRWGWLK
B2: YER152C 237-250 (peptide)
chain: DELPSPPLRMVHID
B3: YJL194W 18-31 (peptide)
chain: DDAPATPPRPLKRK
B4: YCR095C 250-263 (peptide)
chain: SREPEVPQRLLTLI
B5: YER025W 174-187 (peptide)
chain: SQRPGSPGRYKLVR
B6: YBL034C 1313-1326 (peptide)
chain: DDTPSIPSKISSKS
B7: YKR054C 2535-2548 (peptide)
chain: SNPPTDPGRIPMSE
B8: YLR318W 152-165 (peptide)
chain: SNEPHLPPKWVQRS

One assay deals with T1, Boi1 SH3 (BOI1_YEAST), P38041.
T1 chain: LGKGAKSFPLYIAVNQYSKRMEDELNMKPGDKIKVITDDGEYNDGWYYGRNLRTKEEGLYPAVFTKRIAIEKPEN
Briefly: SPOT array.
Regarding B1, the normalised SPOT signal, Boehringer light units (BLU); mean over the file's lines of this peptide was 77.3.

For the molecule B2, the normalised SPOT signal, Boehringer light units (BLU); mean over the file's lines of this peptide worked out at 128.

Turning to B3, the normalised SPOT signal, Boehringer light units (BLU); mean over the file's lines of this peptide is 242.

On to B4, for which the normalised SPOT signal, Boehringer light units (BLU); mean over the file's lines of this peptide is 60.

For B5, the normalised SPOT signal, Boehringer light units (BLU); mean over the file's lines of this peptide was 123.

Molecule B6 gave a normalised SPOT signal, Boehringer light units (BLU); mean over the file's lines of this peptide of 63.8.

In turn, B7 gave a normalised SPOT signal, Boehringer light units (BLU); mean over the file's lines of this peptide of 23.4.

Consider B8, for which the normalised SPOT signal, Boehringer light units (BLU); mean over the file's lines of this peptide worked out at 120.

Another assay deals with T2, Rvs167 SH3 (RV167_YEAST), P39743.
T2 chain: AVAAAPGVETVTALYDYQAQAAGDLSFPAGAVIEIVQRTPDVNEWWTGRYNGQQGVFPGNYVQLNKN
Briefly: SPOT array.
B1 returned a normalised SPOT signal, Boehringer light units (BLU); mean over the file's lines of this peptide of 62.6.

In turn, B2 gave a normalised SPOT signal, Boehringer light units (BLU); mean over the file's lines of this peptide of 124.

B3 showed a normalised SPOT signal, Boehringer light units (BLU); mean over the file's lines of this peptide of 4430.

Molecule B4 registered a normalised SPOT signal, Boehringer light units (BLU); mean over the file's lines of this peptide of 42.9.

B5 showed a normalised SPOT signal, Boehringer light units (BLU); mean over the file's lines of this peptide of 94.

In turn, B6 showed a normalised SPOT signal, Boehringer light units (BLU); mean over the file's lines of this peptide of 247.

B7 registered a normalised SPOT signal, Boehringer light units (BLU); mean over the file's lines of this peptide of 40.5.

The molecule B8 gave a normalised SPOT signal, Boehringer light units (BLU); mean over the file's lines of this peptide of 4.1.

The target in a further assay is T3, Yhr016c SH3 (YSC84_YEAST), P32793.
T3 chain: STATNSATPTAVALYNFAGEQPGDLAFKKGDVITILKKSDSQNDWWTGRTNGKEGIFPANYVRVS
Briefly: SPOT array.
In the case of B1, the normalised SPOT signal, Boehringer light units (BLU); mean over the file's lines of this peptide is 2420.

In the case of B2, the normalised SPOT signal, Boehringer light units (BLU); mean over the file's lines of this peptide worked out at 6740.

Consider B3, for which the normalised SPOT signal, Boehringer light units (BLU); mean over the file's lines of this peptide is 13400.

B4 displayed a normalised SPOT signal, Boehringer light units (BLU); mean over the file's lines of this peptide of 176.

B5 displayed a normalised SPOT signal, Boehringer light units (BLU); mean over the file's lines of this peptide of 202.

B6 came in with a normalised SPOT signal, Boehringer light units (BLU); mean over the file's lines of this peptide of 188.

For B7, the normalised SPOT signal, Boehringer light units (BLU); mean over the file's lines of this peptide stood at 259.

Take B8: the normalised SPOT signal, Boehringer light units (BLU); mean over the file's lines of this peptide was determined as 84.

In a further assay the target is T4, Yfr024 SH3 (LSB3_YEAST), P43603.
T4 chain: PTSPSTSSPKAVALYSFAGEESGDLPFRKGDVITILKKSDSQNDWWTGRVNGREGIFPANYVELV
In words: SPOT array.
The molecule B1 displayed a normalised SPOT signal, Boehringer light units (BLU); mean over the file's lines of this peptide of 9640.

B2 returned a normalised SPOT signal, Boehringer light units (BLU); mean over the file's lines of this peptide of 7450.

Take B3: the normalised SPOT signal, Boehringer light units (BLU); mean over the file's lines of this peptide is 26500.

As for B4, the normalised SPOT signal, Boehringer light units (BLU); mean over the file's lines of this peptide was determined as 1140.

Molecule B5 gave a normalised SPOT signal, Boehringer light units (BLU); mean over the file's lines of this peptide of 634.

For the molecule B6, the normalised SPOT signal, Boehringer light units (BLU); mean over the file's lines of this peptide was 124.

In turn, B7 gave a normalised SPOT signal, Boehringer light units (BLU); mean over the file's lines of this peptide of 22.9.

In turn, B8 returned a normalised SPOT signal, Boehringer light units (BLU); mean over the file's lines of this peptide of 2740.

A further assay concerns the target T5, Boi2 SH3 (BOI2_YEAST), P39969.
T5 chain: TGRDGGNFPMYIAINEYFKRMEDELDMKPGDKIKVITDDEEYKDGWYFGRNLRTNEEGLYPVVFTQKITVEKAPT
Briefly: SPOT array.
The molecule B1 yielded a normalised SPOT signal, Boehringer light units (BLU); mean over the file's lines of this peptide of 112.

In turn, B2 showed a normalised SPOT signal, Boehringer light units (BLU); mean over the file's lines of this peptide of 28.3.

Molecule B3 returned a normalised SPOT signal, Boehringer light units (BLU); mean over the file's lines of this peptide of 101.

Consider B4, for which the normalised SPOT signal, Boehringer light units (BLU); mean over the file's lines of this peptide was 67.2.

With B5, the normalised SPOT signal, Boehringer light units (BLU); mean over the file's lines of this peptide is 51.1.

B6 registered a normalised SPOT signal, Boehringer light units (BLU); mean over the file's lines of this peptide of 115.

Molecule B7 gave a normalised SPOT signal, Boehringer light units (BLU); mean over the file's lines of this peptide of 56.4.

B8 yielded a normalised SPOT signal, Boehringer light units (BLU); mean over the file's lines of this peptide of 9.7.
